Data taken from article doi:10.1101/2021.05.24.445485.

Target: Escherichia coli MRE600 30S ribosomal subunits (E. coli)
Experiment: ITC

Kd: 0.806 µM
B1: initiation factor IF1 (natural protein)
chain: MAKEDNIEMQGTVLETLPNTMFRVELENGHVVTAHISGKMRKNYIRILTGDKVTVELTPYDLSKGRIVFRSR
